The text below walks through data of patent US20160136234A1.

Targets include ROCK-I (h) (human) (UniProt Q13464); GSK3α (h) (human) (UniProt P49840); Abl (Q252H) (h) (human) (UniProt P00519); Met(D1246H) (h) (human) (UniProt P08581); EGFR(L861Q) (h) (human) (UniProt P00533); FGFR1(V561M) (h) (human) (UniProt P11362); Ros (h) (human) (UniProt P08922); JAK2 (h) (human) (UniProt O60674); PKCε (h) (human) (UniProt Q02156); Tie2(Y897S) (h) (human) (UniProt Q02763); FGFR1 (h) (human) (UniProt P11362); IR (h) (human) (UniProt P06213); AMPKα2 (h) (human) (UniProt P54646); IRAK1 (h) (human) (UniProt P51617); PAK3 (h) (human) (UniProt O75914); Rsk4 (h) (human) (UniProt Q9UK32); Pim-1 (h) (human) (UniProt P11309).

Assay in all cases: cell-based or functional assay
In another assay the target is T1, Axl (h) (human) (UniProt P30530).
T1 sequence (looked up): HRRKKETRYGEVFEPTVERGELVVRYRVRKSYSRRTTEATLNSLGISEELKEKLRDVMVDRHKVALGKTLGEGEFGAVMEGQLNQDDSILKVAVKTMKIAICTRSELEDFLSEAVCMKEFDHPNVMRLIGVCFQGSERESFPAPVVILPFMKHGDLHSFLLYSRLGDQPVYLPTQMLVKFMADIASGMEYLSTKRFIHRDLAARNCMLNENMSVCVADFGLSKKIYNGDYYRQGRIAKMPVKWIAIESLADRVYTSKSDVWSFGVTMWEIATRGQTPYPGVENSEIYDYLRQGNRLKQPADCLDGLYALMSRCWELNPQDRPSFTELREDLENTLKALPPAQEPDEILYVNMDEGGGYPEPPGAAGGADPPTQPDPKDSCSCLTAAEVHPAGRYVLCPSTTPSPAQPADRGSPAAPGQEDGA

A further assay addresses T2, MST2 (h) (human) (UniProt Q13188).
T2 sequence (looked up): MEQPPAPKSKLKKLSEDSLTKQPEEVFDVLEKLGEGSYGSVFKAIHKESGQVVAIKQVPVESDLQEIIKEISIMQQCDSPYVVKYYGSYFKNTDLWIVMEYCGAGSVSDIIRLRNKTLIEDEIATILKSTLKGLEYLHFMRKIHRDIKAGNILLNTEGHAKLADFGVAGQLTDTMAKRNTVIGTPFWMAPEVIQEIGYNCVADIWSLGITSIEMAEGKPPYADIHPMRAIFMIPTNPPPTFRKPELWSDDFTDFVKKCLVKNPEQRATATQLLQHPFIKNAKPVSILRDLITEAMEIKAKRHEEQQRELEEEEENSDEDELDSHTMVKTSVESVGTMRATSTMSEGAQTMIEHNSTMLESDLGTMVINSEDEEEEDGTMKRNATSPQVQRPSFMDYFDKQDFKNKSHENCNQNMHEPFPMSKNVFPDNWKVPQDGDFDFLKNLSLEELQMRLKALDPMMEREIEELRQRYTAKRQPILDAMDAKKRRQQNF

In a further assay the target is T3, EphA8 (h) (human) (UniProt P29322).
T3 sequence (looked up): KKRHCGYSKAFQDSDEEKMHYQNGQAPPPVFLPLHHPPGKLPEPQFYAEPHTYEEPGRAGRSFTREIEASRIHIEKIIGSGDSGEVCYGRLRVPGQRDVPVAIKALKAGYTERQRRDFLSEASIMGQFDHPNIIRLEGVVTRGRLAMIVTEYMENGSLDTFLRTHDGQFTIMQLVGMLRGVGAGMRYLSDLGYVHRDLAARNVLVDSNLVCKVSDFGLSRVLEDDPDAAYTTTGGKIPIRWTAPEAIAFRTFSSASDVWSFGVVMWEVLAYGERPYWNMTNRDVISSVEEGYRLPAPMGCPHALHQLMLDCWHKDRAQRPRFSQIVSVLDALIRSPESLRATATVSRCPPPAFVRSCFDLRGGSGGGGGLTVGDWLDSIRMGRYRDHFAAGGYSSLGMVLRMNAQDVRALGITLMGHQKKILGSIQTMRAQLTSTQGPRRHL

For assay [1], the target named is CDK9/cyclin T1 (h) (human) (UniProt P50750).
A further assay concerns the target T4, IRAK4 (h) (human) (UniProt Q9NWZ3).
T4 sequence (looked up): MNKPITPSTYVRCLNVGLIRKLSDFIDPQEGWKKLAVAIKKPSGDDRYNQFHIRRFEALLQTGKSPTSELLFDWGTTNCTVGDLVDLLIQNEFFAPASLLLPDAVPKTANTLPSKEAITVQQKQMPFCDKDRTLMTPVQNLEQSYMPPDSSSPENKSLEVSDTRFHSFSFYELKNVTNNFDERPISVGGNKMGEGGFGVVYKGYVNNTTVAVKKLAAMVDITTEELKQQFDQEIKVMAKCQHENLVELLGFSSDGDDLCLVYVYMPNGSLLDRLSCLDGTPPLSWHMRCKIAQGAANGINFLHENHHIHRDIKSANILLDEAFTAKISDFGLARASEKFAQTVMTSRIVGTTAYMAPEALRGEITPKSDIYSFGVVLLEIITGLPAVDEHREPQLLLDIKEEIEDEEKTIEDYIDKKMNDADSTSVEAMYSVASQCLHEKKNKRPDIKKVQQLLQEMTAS

Sequence of Rsk4 (h) (human) (Q9UK32 whole entry): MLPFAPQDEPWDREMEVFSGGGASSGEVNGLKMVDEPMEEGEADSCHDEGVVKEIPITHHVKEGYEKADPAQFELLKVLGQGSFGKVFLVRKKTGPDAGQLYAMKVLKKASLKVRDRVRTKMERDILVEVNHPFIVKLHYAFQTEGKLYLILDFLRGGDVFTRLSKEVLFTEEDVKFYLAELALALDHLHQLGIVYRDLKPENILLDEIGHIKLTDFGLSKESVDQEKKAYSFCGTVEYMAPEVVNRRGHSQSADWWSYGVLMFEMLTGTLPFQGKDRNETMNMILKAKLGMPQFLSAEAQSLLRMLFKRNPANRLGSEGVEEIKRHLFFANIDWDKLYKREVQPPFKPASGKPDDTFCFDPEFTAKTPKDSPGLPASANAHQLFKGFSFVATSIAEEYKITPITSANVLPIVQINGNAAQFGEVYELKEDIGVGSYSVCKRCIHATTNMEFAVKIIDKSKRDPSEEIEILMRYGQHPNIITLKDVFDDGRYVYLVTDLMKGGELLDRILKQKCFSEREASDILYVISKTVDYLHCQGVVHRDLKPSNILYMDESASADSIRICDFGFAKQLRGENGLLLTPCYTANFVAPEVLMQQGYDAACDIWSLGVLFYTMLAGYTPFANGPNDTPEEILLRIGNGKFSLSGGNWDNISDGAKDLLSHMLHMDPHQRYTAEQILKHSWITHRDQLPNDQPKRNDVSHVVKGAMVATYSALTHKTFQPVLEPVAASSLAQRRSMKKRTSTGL
Sequence of FGFR1(V561M) (h) (human) (P11362 456-765 V561M limits assumed): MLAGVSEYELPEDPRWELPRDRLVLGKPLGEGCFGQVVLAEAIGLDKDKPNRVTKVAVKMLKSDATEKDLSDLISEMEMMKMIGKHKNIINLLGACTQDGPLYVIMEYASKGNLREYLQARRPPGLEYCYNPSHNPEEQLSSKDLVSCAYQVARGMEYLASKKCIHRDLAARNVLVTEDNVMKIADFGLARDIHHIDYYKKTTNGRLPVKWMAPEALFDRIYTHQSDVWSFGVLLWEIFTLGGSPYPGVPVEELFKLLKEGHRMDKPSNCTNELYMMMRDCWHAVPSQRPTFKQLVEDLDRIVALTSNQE
Sequence of Abl (Q252H) (h) (human) (P00519 27-1130 Q252H limits assumed): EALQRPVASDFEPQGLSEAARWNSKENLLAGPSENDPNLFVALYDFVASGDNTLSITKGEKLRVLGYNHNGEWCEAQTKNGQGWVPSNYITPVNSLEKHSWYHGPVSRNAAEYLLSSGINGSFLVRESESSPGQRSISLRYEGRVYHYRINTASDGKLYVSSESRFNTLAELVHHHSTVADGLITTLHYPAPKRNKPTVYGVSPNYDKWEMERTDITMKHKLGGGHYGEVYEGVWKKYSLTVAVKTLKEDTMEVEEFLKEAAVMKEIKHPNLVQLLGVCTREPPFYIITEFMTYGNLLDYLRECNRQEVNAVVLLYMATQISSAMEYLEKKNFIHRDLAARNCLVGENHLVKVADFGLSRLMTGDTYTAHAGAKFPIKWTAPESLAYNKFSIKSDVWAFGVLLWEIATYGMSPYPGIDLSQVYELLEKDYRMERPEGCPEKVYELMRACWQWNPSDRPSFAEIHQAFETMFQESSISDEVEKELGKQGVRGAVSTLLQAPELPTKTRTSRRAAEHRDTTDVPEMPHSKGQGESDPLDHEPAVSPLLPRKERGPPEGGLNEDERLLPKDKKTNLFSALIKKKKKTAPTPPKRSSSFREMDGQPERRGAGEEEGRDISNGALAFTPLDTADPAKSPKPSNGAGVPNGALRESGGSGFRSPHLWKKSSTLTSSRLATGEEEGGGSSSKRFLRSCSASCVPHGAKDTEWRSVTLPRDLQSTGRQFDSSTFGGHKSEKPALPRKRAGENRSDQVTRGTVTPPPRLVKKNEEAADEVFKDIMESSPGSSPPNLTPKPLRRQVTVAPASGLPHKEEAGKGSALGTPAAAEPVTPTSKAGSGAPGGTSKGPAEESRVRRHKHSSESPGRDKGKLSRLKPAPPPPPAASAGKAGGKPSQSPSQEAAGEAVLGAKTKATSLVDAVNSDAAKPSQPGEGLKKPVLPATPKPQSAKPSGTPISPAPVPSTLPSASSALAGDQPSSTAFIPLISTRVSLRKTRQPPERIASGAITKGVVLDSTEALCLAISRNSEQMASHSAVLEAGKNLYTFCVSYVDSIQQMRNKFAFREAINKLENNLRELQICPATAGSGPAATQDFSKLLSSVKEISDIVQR
Sequence of FGFR1 (h) (human) (P11362 456-765 limits assumed): as the sequence (P11362 456-765 V561M limits assumed) above, with M106V counted along it
Sequence of Tie2(Y897S) (h) (human) (Q02763 771-1124 Y897S limits assumed): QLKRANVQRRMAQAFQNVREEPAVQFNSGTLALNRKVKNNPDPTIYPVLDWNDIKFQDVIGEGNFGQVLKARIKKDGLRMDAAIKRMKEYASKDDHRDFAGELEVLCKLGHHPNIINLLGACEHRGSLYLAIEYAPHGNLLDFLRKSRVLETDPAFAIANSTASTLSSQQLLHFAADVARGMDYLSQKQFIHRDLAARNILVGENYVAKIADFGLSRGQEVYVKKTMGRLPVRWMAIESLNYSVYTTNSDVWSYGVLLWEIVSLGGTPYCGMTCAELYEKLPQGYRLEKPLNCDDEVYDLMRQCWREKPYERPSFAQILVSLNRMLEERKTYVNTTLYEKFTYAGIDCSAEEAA
Sequence of Ros (h) (human) (P08922 1883-2347 limits assumed): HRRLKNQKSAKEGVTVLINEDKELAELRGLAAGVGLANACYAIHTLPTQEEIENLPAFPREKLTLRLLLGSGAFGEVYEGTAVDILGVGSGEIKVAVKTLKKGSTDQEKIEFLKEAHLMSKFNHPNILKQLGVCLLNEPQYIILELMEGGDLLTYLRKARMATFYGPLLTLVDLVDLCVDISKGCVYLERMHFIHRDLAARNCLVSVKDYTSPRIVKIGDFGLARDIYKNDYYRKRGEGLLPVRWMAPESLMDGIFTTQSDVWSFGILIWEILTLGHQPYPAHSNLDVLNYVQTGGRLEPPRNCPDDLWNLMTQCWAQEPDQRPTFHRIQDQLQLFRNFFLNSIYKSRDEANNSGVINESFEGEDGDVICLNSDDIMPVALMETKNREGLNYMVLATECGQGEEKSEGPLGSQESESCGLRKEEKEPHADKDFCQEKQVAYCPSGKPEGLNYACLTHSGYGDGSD
Sequence of IR (h) (human) (P06213 1005-1310 limits assumed): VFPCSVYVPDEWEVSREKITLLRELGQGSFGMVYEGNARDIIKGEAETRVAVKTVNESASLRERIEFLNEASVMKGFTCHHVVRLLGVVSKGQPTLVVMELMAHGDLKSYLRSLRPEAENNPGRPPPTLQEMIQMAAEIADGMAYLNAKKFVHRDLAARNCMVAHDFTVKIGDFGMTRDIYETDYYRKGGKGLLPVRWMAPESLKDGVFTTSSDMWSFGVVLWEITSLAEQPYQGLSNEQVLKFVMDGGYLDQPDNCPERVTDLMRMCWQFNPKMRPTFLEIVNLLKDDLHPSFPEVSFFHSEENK

In the case of MMI-0300 (peptide), the % activity at 100 µM in the assay with Axl (h) (human) amounted to 52%; with ROCK-I (h) (human), 79%; with GSK3α (h) (human), 157%; with MST2 (h) (human) it was 19%; with Abl (Q252H) (h) (human), 82%; in the assay with Met(D1246H) (h) (human), 125%. For the same substance, the % activity at 100 µM with EGFR(L861Q) (h) (human) was 25%; with FGFR1(V561M) (h) (human), 74%; with Ros (h) (human), 95%; in the assay with JAK2 (h) (human), 133%; in the assay with PKCε (h) (human) it was 79%; with Tie2(Y897S) (h) (human) it was 83%. Also, the % activity at 100 µM in the assay with FGFR1 (h) (human) was found to be 55%; with EphA8 (h) (human), 93%; in assay [1] it was 91%; with IR (h) (human), 96%; with AMPKα2 (h) (human) it was 54%; with IRAK1 (h) (human) it was 95%. Further, the % activity at 100 µM with PAK3 (h) (human) came out at 140%; in the assay with Rsk4 (h) (human), 90%; with Pim-1 (h) (human), 8%; in the assay with IRAK4 (h) (human), 59%.
